Measured values taken from publication PMC3416856.

Biological target: T1, KaiC of unphosphorylated initial condition (Synechococcus elongatus) (UniProt Q79PF4)
T1 sequence (chain, unphosphorylated at the start of the incubation): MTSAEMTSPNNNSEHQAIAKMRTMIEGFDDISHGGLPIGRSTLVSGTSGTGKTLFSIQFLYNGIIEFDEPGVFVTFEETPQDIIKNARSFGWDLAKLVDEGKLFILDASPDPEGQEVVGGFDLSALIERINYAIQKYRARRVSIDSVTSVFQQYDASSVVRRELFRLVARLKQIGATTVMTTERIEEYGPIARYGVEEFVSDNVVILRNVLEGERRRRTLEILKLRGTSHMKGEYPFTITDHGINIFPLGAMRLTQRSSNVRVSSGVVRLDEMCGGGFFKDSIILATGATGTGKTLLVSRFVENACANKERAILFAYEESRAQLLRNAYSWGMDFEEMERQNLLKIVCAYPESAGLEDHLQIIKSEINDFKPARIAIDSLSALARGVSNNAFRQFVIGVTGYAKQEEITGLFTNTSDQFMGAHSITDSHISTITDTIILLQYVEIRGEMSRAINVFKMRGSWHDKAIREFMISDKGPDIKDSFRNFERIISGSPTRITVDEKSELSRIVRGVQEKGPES

B1: wild type KaiA (natural protein)
chain: MLSQIAICIWVESTAILQDCQRALSADRYQLQVCESGEMLLEYAQTHRDQIDCLILVAANPSFRAVVQQLCFEGVVVPAIVVGDRDSEDPDEPAKEQLYHSAELHLGIHQLEQLPYQVDAALAEFLRLAPVETMADHIMLMGANHDPELSSQQRDLAQRLQERLGYLGVYYKRDPDRFLRNLPAYESQKLHQAMQTSYREIVLSYFSPNSNLNQSIDNFVNMAFFADVPVTKVVEIHMELMDEFAKKLRVEGRSEDILLDYRLTLIDVIAHLCEMYRRSIPRET
half-maximum concentration of KaiA for the phosphorylation of KaiC (3.5 µM) at 16 hr, 30°C (SDS-PAGE densitometry, sigmoid fit), against that for the highly phosphorylated initial condition: 5 fold
